Measured values reported in publication PMC10955490.

B1: SlGA2ox3 promoter mutated probe (dsDNA)
DNA 1: ATGCCCCCATCTAAAAAACCTTCATATTTC
DNA 2: GAAATATGAAGGTTTTTTAGATGGGGGCAT
B2: SlGA2ox3 promoter GCC-box probe (dsDNA)
DNA 1: ATGCCCCCATCTGCCGCCCCTTCATATTTC
DNA 2: GAAATATGAAGGGGCGGCAGATGGGGGCAT
B3: SlGA2ox3 promoter GCC-box unlabelled competitor (dsDNA)
DNA 1: B2 DNA 1
DNA 2: B2 DNA 2

Experiments:
SlERF36 [1] = biological target: T1, SlERF36 (Solanum lycopersicum (tomato), UniProt A0A3Q7IBC2 1-221); test: EMSA
SlERF36 [2] = biological target: T1, SlERF36; test: competition

Binder	binding result (SlERF36 [1])	binding result (SlERF36 [2])
B1	no binding	–
B2	binds	–
B3	–	binds
